In IntAct's records for PubMed 16319069:

B1: 5-hydroxytryptamine receptor 2C (Homo sapiens), P28335 (parent)
chain: MVNLRNAVHSFLVHLIGLLVWQSDISVSPVAAIVTDIFNTSDGGRFKFPDGVQNWPALSIVIIIIMTIGGNILVIMAVSMEKKLHNATNYFLMSLAIADMLVGLLVMPLSLLAILYDYVWPLPRYLCPVWISLDVLFSTASIMHLCAISLDRYVAIRNPIEHSRFNSRTKAIMKIAIVWAISIGVSVPIPVIGLRDEEKVFVNNTTCVLNDPNFVLIGSFVAFFIPLTIMVITYCLTIYVLRRQALMLLHGHTEEPPGLSLDFLKCCKRNTAEEENSANPNQDQNARRRKKKERRPRGTMQAINNERKASKVLGIVFFVFLIMWCPFFITNILSVLCEKSCNQKLMEKLLNVFVWIGYVCSGINPLVYTLFNKIYRRAFSNYLRCNYKVEKKPPVRQIPRVAATALSGRELNVNIYRHTNEPVIEKASDNEPGIEMQVENLELPVNPSSVVSERISSV

Variants of: B1
Settings: with arrb2_mouse Arrb2, Q91YI4
Sequence of arrb2_mouse Arrb2, Q91YI4 (Q91YI4 whole entry): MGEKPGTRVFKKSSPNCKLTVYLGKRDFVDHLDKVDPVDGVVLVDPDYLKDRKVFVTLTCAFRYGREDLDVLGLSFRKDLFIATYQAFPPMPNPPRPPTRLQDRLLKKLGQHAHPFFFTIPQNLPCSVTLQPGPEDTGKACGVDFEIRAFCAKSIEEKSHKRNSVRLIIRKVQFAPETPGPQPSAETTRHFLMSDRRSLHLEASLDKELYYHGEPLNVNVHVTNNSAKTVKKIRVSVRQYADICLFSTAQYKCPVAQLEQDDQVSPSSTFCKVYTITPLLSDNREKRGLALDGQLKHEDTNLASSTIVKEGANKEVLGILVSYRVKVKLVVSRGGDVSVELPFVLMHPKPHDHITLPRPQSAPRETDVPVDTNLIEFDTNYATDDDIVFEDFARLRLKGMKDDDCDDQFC

effect of a mutation on the interaction	Variant
decreasing interaction	P159A
